Assay results as given in a protein production outcome set (Wang et al. 2014).

Test: label from the status in PepcDB records
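Further: failed if final PepcDB status was selected cloned or expressed and not failed if soluble or beyond.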

For “MDIFLVVLVLLTIIAISNIVNRFIPFIPVPLIQVALGILAASFPQGLHFELNTELFFVLFIAPLLFNDGKRTPRAELWNLRAPILLLALGLVFATVIVGGYTIHWMIPAIPLAAAFGLAAILSPTDVVAVSALSGRVKMPKGILRLLEGEGLMNDASGLVAFKFAIAAAVTGAFSLAQAAVSFVFISLGGLLCGVVISFLIIRFRLFLRRLGMQDVTMHMLIQILTPFVIYLAAEEIGVSGILAVVAGGITHAVEQDRLESTMIKLQIVSSSTWNIILFILNGLVFVILGTQIPDVISVIFNDTAISNMKVIGYILVITFTLMLLRFLWVLFFWNGKWFFNKDQNIYKPGLRSTLLISISGVRGAVTLAGSFSIPYFLEDGTPFPERNLILFLAAGVILCTLVIATVVLPILTEKEEEDEERNKKLLTARRKLIKTALQTIKEDMNETNKTASLAVIAEYNEKMKNLRFQQYTSSNRIKKHERKVRAQGVKAEQEALMKMLERGDIPEETANVLQERFNELEILYANPFKVGLSKTRLKRLMYWIFFGEHKKPEMSILNEAGLIRATRVKTAKAAIEYLEKHKTDEHKEVFLSVITFYKQLIFRLEHSHHELKSSAHFENQKLEVKLKAVQAIRNEIQTLFEEREISRDISHELRQYINDVEAAMLEGGE”, the protein production was “failed”.
In the case of “MAKKVVGEIKLQIPAGKANPSPPVGPALGQRGVNIMEFCKAFNERTKDMGSFNIPVIITVYQDKSFTFITKKPPVTDLIKKASGVEKGSDNPLKNKIAKLTHKQVEEIAQLKMEDLNTSTMEAAKKIVMGSARSMGVEVVD”, the protein production is reported as “failed”.
With “MMRVGIIGAGNIGHMHAEAVAACENTLLTGVFDLDRERAQSLARASGTVAFASPDELYKASDGVVVASPNRTHADYAREAVAYGRSVLCEKPMAVSLLQAADMRALAAVAPGVCAVGFNYRYLNVIREARNRIGEGMLGRVVHVDVAFKRASALTRQHFTWRDSAAEGHTSGALGDLGVHLIDMLHHLFRSPVDLASCQVALRTKVAAKGGHAVEVDDHAFVSGRIEGGPSFTLTASKASQPEETGFTLAAMGSRGDLSHDSQDGPVLHLRTGIDWEQVKLLGPSRLDDPRGEVTGWGDSFLDQLHDWAGAVTASQRSGTLADFEDGYQAQQVLQELLRIGGRM” the protein production was “failed”.
In the case of “GHMARTVNLKGNPVTLVGPELKVGDRAPEAVVVTKDLQEKIVGGAKDVVQVIITVPSLDTPVCETETKKFNEIMAGMEGVDVTVVSMDLPFAQKRFCESFNIQNVTVASDFRYRDMEKYGVLIGEGALKGILARAVFIIDKEGKVAYVQLVPEITEEPNYDEVVNKVKELI”, the protein production is reported as “not failed”.
With “ATTMEQETCAHSLTFEECPKCSALQYRNGFYLLKYDEEWYPEELLTDGEDDVFDPELDMEVVFELQGNSTSSDKNNSSSEGNEGVIINNFYSNQYQNSIDLSANAAGSDPPRTYGQFSNLLSGAVNAFSNMLPLLADQNTEEMENLSDRVSQDTAGNTVTNTQSTVGRLVGYGTVHDGEHPASCADTASEKILAVERYYTFKVNDWTSTQKPFEYIRIPLPHVLSGEDGGVFGAALRRHYLVKTGWRVQVQCNASQFHAGSLLVFMAPEYPTLDAFAMDNRWSKDNLPNGTRTQTNKKGPFAMDHQNFWQWTLYPHQFLNLRTNTTVDLEVPYVNIAPTSSWTQHASWTLVIAVVAPLTYSTGASTSLDITASIQPVRPVFNGLRHETLSRQ” the protein production was “not failed”.
For “MEKLSAIKKPDINVADAWEQYWNKTLVNSTPVLWDANVERAVVVDLPRFELLFNPELPLIDFACGNGTQTKFLSQFFPRVIGLDVSKSALEIAAKENTAANISYRLLDGLVPEQAAQIHSEIGDANIYMRTGFHHIPVEKRELLGQSLRILLGKQGAMYLIELGTGCIDFFNSLLEKYGQLPYELLLVMEHGIRPGIFTAEDIELYFPDFEILSQGEGLFQSIHKLPDGNYATPPAFWAVIKHR”, the protein production was “not failed”.
In the case of “MARAKNVLWIMCDQLRYDYLGCTGHPTLKTPNIDAMAKRGVLFSKAYVQSPICGPSRMSFYTGRYMRSHGSHWNGWPLRVGEPTLGDHLKKIGVRNVLVGKTHMAPDLEGMKALGIPPESMIGVHVAECGFEPYERDDGLHPTGRPRPKYDEYLRKQGFEATNPWEHWANSGAAEDGSLQNGWLLVHADKAARVPEEHSETPYMTRRAMDFISEAETDGKPWCLHLSYIKPHWPYIAPEPYASMYSTDDMIPVIRSERERQNPHPVFGAYMDMRYSRNMARDDAREKVIPTYMGLITQIDDQMGALMKFLEERGLLDTTMIVFTSDHGDYLGDHWMGEKDLFHEQSAKIPLIIIDPSREADATRGTRSDALVEGIDLAPTFVDYFGGKVPGHILEGRSLLPLLRGPTPPDWRKVAFSEYDYAMQDVRLKLNQPIERCRLFMVFDGRWKYIHASGFRPMLYDLETDPEEFLDRGDDPDCAGIIARLQAELFDWALHPNDHITTPREKIAAYADNQLQVKGGVLIGIWDEAELAAIKDGIAQRAKL”, the protein production is reported as “failed”.
In the case of “MLKHCGEFHIALKHLQLALLYTYPSTFSELQVKFQIAHLYEVQNKHKAAKDGYEFLLNEKNISLELKADVYRQLGWMYHCVECLGEKKEREANALNFLQKSIEADPKSGQSLYLLGRCYAGINKVHDAFLAYRNSVEKSEGNADTWCSIGVLYQQQNQPTDALQAYICAVQLDKDHKAAWTNLGILYESCGQLRDAYACYLNATKQISFQKSSLIRKKQAIRMKKDTIGLSKGLSQRITFLEGQLSQAPLPSITSKRRQLCSIEEAWNLPISLEMNSRQQQTAQMLPRQVTKQSPVQGPPPPYPHSQLSQSPIPSKRIKEDGTSQQEVTQNNSQTSAQNLINISESLNQRNFNAMPESNKSSEQSVLDTFDDISNDIYKQNESIKLERLSQDALSNNEDSRHDFIGGDNADISTTFKIQMDSKQLMVAVKLLPIDEPPVHCTILQVNAPPPSPPDCPPQKLTRDQLLPPTPSVHLENKKHAFSPQLQEFCLKHPIAVVRGLAGVLKLDLGLFSTKTLVEANPDHSVEVRTQVHQSPDENWDTSQGKRVWACISHRSHTTIAKYAQYQASSFQDSLKLILPQDESDKGFPGSQAMSDSDSKDSVSNSNIVLKRKKHKINSKMLRFGTNVDLSDEKKWKPQLTELQKLPAFARVISAANMLSHVGHVILGMNTVQLYMKVPGSRTPGHQENNNFCSININIGPGDCEWFAVPDAYWGGVHNLCEKNNISYLHGSWWPVLEDLYKENIPVYRFIQKPGDLVWVNAGCVHWVQSIGWCNNIAWNVGPLTARQYSLAIERYEWNKVQAFKSIVPMVHLSWNLARNIKVSDTKLFELIKMCLLQTLKNVLHIQEYVKSKGVEIRFNGRGKNEASHYCGQCEVEVFNVLFIKEQEKRHVVHCLSCALKLSPSLQGIVCLEEYRLSELQRVYDSFTLHRTQGLAYTQ”, the protein production is reported as “failed”.
In the case of “MKFYNREKEVAELKRVQELAFTQNSRMIVVTGRRRIGKTSLIKEALKGTPTVYLFIGRKAESILVTDFVKIVRETLSIFVPEGIPTFTNLMQYLFEVGKTRAFNIVIDEFQEFYNIRPDVFSDMQNLWDEYKQETKINLVISGSVYSLMQKIFTDHNEPLFGRADNILCLRAFKIGVLKQIMEDLASGYSNDDLLALYTLTGGIPKYVELFCDNQALTIDKMYDFVFSENSLFIDEGRNLLITEFGKNYGTYFSILSEIANGHYTQGEIESALGGTAIGGYLSKLENVYNLITRERPIFAKPGTKKNVRYVIGDNFLNFWFKYIEQNRSYIELQNFDDLRQLAKADYPTYSGRVLEKYFKQKLAETGGFKEIGSWWETKSSIGKQRINSYEIDIVALKSSGKKALIAEVKRVPENNYSHTVFMEKVEHLKQKEMSKYDIETQVLGLKDMLEHHHHHH”, the protein production is reported as “failed”.
With “MLAPERIHPALWRATQLAHGPTRKLPTGYADLSAQLPGGGWPLGALVELLLPQPGSGEIRLLRPALAQLEARRAIALVQPPHAPHIASWASWRLDPRQLLWVAPERPADALWAAEQILKAGSCAALLCWLPQVRPESLRRLHLAAQGGDALFVALRPAAAEQHASPAVLRLALAPAPGGLSIRIVKRRGPACEHPVHVGLEAGAGLSVFPAPHAPLDRRLPAQPVAGRRTPALVSLEHHHHHH” the protein production was “not failed”.
For “MDLVSLVERIGEAPTAALFGLITGITFGVAAQRSRFCLRAATVEFARGRMEDKVAVWLLTFSTALVWVQAAQLMGLMNGADARMMAVPGSWSGAIIGGLMFGAGMVLARGCSGRLLVLAATGNLRSVVSGLIFAVVAQMSLSGLLSPLRDKLAALWITEGGRNMNLLSTFGLPEYGGLVLGLVCAVLALVLARRHRIGAARLVFASGVGFAVALGWVLTYALSQVAFEPVQIESATFTGPSAHTLMFFLDRNAVLEFDVGLVPGVFIGAMIAAALAGEMKIQAFDGPVTMRKAMIGAALMGFGGMLAGGCAIGAGVTGGSIFVGTAWAALFFMWVGAMATDFLIDQRAASPRAA”, the protein production was “failed”.
With “MQSSSSLAPVAPIIFLAIAIAAINWIDLARGKNRTSVAYPLSLLTTLVLTAWFGIDAAGGETHYAFANLVVIDPMANVLAAFCSLGMLLTLIYTRSYLAERDMFAGEFYMLALFTLGGQIVMITGNNFLTLYLGLELLSLSSYALVALRRDSRVTSESAIKYFVLGALASGFLLYGMSMMYGATGSLNLGEVFRVVESGRVNTTMLAFGVVFIVAGVAFKLGAAPFHMWIPDIYQGSPTAVTLLIAAGPKVAAFALIIRLLVEGLLPLATDWQVMLVILSIASLVIGNLTAIVQTNLKRMLAYSTISHMGFVLLGMLSGVVANKADGAVNAYSSSMFYSITYMLTTLGTFGLILVRTRKGFEAETLDDLKGMSRRHPWFAFLMLVMMFSMAGIPPTVGFYAKLSVLQAVVSAGMSWLAVLAVVFSLIGAFYYLRIVKLMYFDAPVGEEPLEASTGLRSVLSLNGLAVILLGLFPAGLMDLCFQAIRATLAS” the protein production was “failed”.
In the case of “MTLNIYTEEWAPISFSVDGKPDGLAVQVVQEIQKRIDNQDPIKVVPWARGWKIITEQPNTVLFTMTRTAERERMFSLIGPVAVGTTNFYALKNSNLEHHHHHH”, the protein production is reported as “failed”.
In the case of “SHLVVESFPSYRDVTLFEGKRVSFYKRAQILVADTWSVLEGKGDGCFKDISSITMFADYRLPQVLAHLGALKYSDDLLKKLLKGEMLSYGDRQEVEIRGCSLWCVELIRDCLLELIEQKGEKPNGEINSILLDYYLWDYAHDHREDMKGIPFHRIRCIYY”, the protein production is reported as “failed”.
In the case of “MPRKNQDLYHHYPQKDRKFTMYKLSEKGEQIREMFSDIAPRYDFLNRLLSFGIDRRWRRIAVQCARWSEGGKILDVATGTGDVALEIARQTPDSVSIIGIDITEGMVVLGREKVAQSPYARRITLEIAPCEAIPFPDNTFDSVTIAFGIRNVVDRRQGLAEMQRILKPGGRAVILEFSTPRSQFFKRVYYFYFLRLLPAIGGLFSNFSAYKYLPDSVLEFPSQEEFKTLMRSVGFHSTTHRDLTFGIATIYTGEKAAQN”, the protein production is reported as “failed”.
In the case of “MRGKHIFIITALISILMLAACGQKNSSATVATATDSTITKSDFEKQLKDRYGKDMLYEMIAQDVITKKYKVSDDDVDKEVQKAKSQYGDQFKNVLKNNGLKDEADFKNQIKFKLSMNKAIKQSVTEKDVKDHYKPEIKASHILVSDENEAKEIKKKLDTGASFEELAKQESQDLLSKEKGGDLGYFHSGAMTPEFETAAYKLKIGQISDPVQSPNGYHIIKLTGKKDLKPYDEVKNSIRKNLEEERTADPIFGKKLLQSELKKANIKINDSELEDTFTIVSPQGN”, the protein production is reported as “failed”.
For “MKGDRTLSCMIKTDRGEICIDPAEPILHIIGKKYAIFIVSVLGNDNTRKNFNDLMRAVPGISSTMLSARLHEMNECGLIERHEGDIVTYELTERGREIRKRMLPLIEYLADAD”, the protein production was “failed”.
In the case of “MASDINAKLRQKQYEAAVLEFAGDRKGYFVVASDDPQFASLLRQTLTKHLAIPGDAMSTVANPDHILRELKNVTMRRKTVLLFLERILEGRDTNLLVRQLKSAYPDLKIIVITGETERNRLVLLHEVGADNFITKPVSMNTLIEKMAFTIKPLGKLGQLIDQAREFVHQNLPEQGIKLCRQILELKPGSAAGYLVMGEAYQHLGKLDKARECYEEASRNAELYLEPLRRLADIHGEMGEPTEQLRYLERLDQLSPLNVERKVDMGAIHLELGNQEKADELFDTAVQQATREALSYIADISGRIAGIYNGRDPQRAEHFLRRALDAKGDMLDASDLDTFNRLGIALRRQGKWQEALTEYHKALRVAPEDENLFYNMGMACAEGRDFREARANMLKALTINPELPRRDPVMAYNIGLVFMRAGGREYAERCLNIALELDPGFTKAREALERLG”, the protein production is reported as “failed”.
